Laboratory results from US20110217282, “Novel Toxin-Antitoxin System” (UNIVERSITY OF MEDICINE AND DENTISTRY OF NEW JERSEY, published 2011).

What was measured:
MqsR = MqsR (Escherichia coli, UniProt Q46865 SEQ:1-98); assay: EMSA; no binding up to 80 nM; conditions: chain copies: 2 inferred; label: 5'-32P
MqsR-YgiT complex [1] = target: T1, MqsR-YgiT complex (Escherichia coli, UniProt Q46865;Q46864 SEQ:1-98,SEQ:1-131); assay: EMSA; shift from 10 nM; stronger than YgiT alone; MqsR:YgiT 2:1; conditions: tags: N-terminal His on MqsR; chain copies: 4 MqsR + 2 YgiT inferred; label: 5'-32P
YgiT [2] = target: T2, YgiT (Escherichia coli, UniProt Q46864 SEQ:1-131); assay: EMSA; shift at 20 nM and higher, none at 5 nM; 50 mM Tris-HCl pH 7.2, 50 mM KCl, poly(dI-dC), 4 C; conditions: tags: C-terminal His; chain copies: 2 inferred; label: 5'-32P
MqsR-YgiT complex [3] = target: T1, MqsR-YgiT complex; assay: EMSA; shift from 5 nM; stronger than YgiT alone; MqsR:YgiT 2:1; conditions: tags: N-terminal His on MqsR; chain copies: 4 MqsR + 2 YgiT inferred; label: 5'-32P
YgiT [4] = target: T2, YgiT; assay: EMSA; shift at 10 nM and higher, none at 5 nM; 50 mM Tris-HCl pH 7.2, 50 mM KCl, poly(dI-dC), 4 C; conditions: tags: C-terminal His; chain copies: 2 inferred; label: 5'-32P

T2 sequence (Q46864 whole entry): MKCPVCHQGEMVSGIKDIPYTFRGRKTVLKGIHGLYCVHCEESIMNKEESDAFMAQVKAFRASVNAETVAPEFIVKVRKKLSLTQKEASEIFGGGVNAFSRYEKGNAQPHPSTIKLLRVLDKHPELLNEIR
Sequence of MqsR (Q46865 whole entry): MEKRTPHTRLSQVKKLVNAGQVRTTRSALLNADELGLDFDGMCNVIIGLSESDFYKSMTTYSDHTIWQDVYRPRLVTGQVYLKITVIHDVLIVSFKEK
T1 sequence (Q46865 whole entry, chain 1 of 2): as the sequence (Q46865 whole entry) above
T1 sequence (Q46864 whole entry, chain 2 of 2): as the sequence (Q46864 whole entry) above

| Binder | binding result (MqsR) | binding result (MqsR-YgiT complex [1]) | binding result (YgiT [2]) | binding result (MqsR-YgiT complex [3]) | binding result (YgiT [4]) |
| --- | --- | --- | --- | --- | --- |
| mqsR-ygiT palindrome 2 (dsDNA) DNA 1: CCCAATTAACCTTTTAGGTTATAACCC DNA 2: GGGTTATAACCTAAAAGGTTAATTGGG | no binding | binds | binds |  |  |
| mqsR-ygiT palindrome 1 (dsDNA) DNA 1: CCCCTAACTAACCTTTTAGGTGCTTTTCCCC DNA 2: GGGGAAAAGCACCTAAAAGGTTAGTTAGGGG | no binding |  |  | binds | binds |
